Laboratory results from patent US20210095027A1 (Xencor, published 2021).

Target: T1, human CD20 (human, UniProt P11836 1-297)
T1 sequence (looked up): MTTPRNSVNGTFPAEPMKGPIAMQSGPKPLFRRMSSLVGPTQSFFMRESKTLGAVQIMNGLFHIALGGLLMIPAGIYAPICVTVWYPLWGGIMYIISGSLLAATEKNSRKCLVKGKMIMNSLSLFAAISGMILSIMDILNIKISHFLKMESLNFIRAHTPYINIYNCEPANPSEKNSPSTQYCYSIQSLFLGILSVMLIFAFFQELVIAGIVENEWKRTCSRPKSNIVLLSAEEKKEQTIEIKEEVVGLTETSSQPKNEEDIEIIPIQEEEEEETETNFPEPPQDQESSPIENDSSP
Experiment: cell-based or functional assay

- EC50 of RTCC against Ramos cells with purified T cells from six healthy donors: 0.0053 to 0.0143 µg/mL
B1: XENP13676 (bispecific antibody)
chain 1: QVQLVQSGAEVKKPGASVKVSCKASGYTFTSYNMHWVRQAPGQGLEWMGAIYPGNGDTSYNQKFQGRVTITADKSISTAYMELSSLRSEDTAVYYCARSTYYGGDWYFNVWGAGTLVTVSSASTKGPSVFPLAPSSKSTSGGTAALGCLVKDYFPEPVTVSWNSGALTSGVHTFPAVLQSSGLYSLSSVVTVPSSSLGTQTYICNVNHKPSDTKVDKKVEPKSCDKTHTCPPCPAPPVAGPSVFLFPPKPKDTLMISRTPEVTCVVVDVKHEDPEVKFNWYVDGVEVHNAKTKPREEEYNSTYRVVSVLTVLHQDWLNGKEYKCKVSNKALPAPIEKTISKAKGQPREPQVYTLPPSREEMTKNQVSLTCDVSGFYPSDIAVEWESDGQPENNYKTTPPVLDSDGSFFLYSKLTVDKSRWEQGDVFSCSVMHEALHNHYTQKSLSLSPGK
chain 2: not shown
light: QIVLTQSPSSLSASVGDRVTITCRASSSVSYIHWFQQKPGKSPKPLIYATSNLASGVPVRFSGSGSGTDYTLTISSLQPEDFATYYCQQWTSNPPTFGGGTKVEIKRTVAAPSVFIFPPSDEQLKSGTASVVCLLNNFYPREAKVQWKVDNALQSGNSQESVTEQDSKDSTYSLSSTLTLSKADYEKHKVYACEVTHQGLSSPVTKSFNRGEC
- EC50 of Jeko-1 target cell killing (RTCC) in the absence of rituximab: 0.024 µg/mL
- EC50 of Jeko-1 target cell killing (RTCC) in the presence of 3 µg/ml rituximab: 0.051 µg/mL
- EC50 of Jeko-1 target cell killing (RTCC) in the presence of 10 µg/ml rituximab: 0.093 µg/mL
- EC50 of Jeko-1 target cell killing (RTCC) in the presence of 30 µg/ml rituximab: 0.162 µg/mL
- EC50 of Jeko-1 target cell killing (RTCC) in the presence of 100 µg/ml rituximab: 0.387 µg/mL
